Among the data in publication PMC8262862 are Kd values, retold here.

What all share (experiment): ELISA
Assay [1] deals with B-Phuket HA.
Assay [2] concerns the target H9 HA.
For assay [3], the target named is H8 HA.
Assay [4] concerns the target H14 HA.
In assay [5] the target is H10 HA.
Assay [6] concerns the target H1 HA.
The target of assay [7] is H7 HA.
Assay [8] deals with H5 HA.
Assay [9] addresses H6 HA.
Assay [10] deals with H2 HA.
The target in assay [11] is H3 HA.
In assay [12] the target is H13 HA.

Regarding CR8033, the Kd in assay [1] is 110 pM.
For FI6v3, the Kd in assay [2] is 480 pM; in assay [3] it was 240 pM; in assay [4], 380 pM; in [5], 9000 pM; in assay [6] it was 290 pM; in [1] it was > 100000 pM. Moreover, the Kd was 340 pM in assay [7]; 250 pM in assay [8]; 470 pM in assay [9]; 300 pM in [10]; 230 pM in assay [11]; 1500 pM in assay [12].
